Data on two molecules can be found in patent US20260265696A1, “HUMAN IPSC DERIVED AMELOBLASTS AND USES THEREOF” (UNIVERSITY OF WASHINGTON, priority 2021, published 2026).

For this assay, the system named is hiPSCs (WTC-11) differentiating to ameloblasts (iAM). The experiment in a line: AMBN expression (QRT-PCR) in hiPSC-derived ameloblast (iAM) differentiation, day 10 to day 16, factors removed or added. The format is cell-based, human. As for the experimental part: FIGS. 7A-7E: (FIG. 7A) Schematic of the 16-day differentiation protocol produced, which targets the identified signaling pathways utilizing growth factors and small molecules to transition through the ameloblast developmental trajectory. […] Each study was performed in triplicate, with error bars representing SEM. (FIG. 7C) The efficiency of each pathway activated in the differentiation from day 10 to day 16 were assessed by removing each agonist one at a time or adding FGFR2 mini binder to inhibit the FGFR2 pathway. AMBN expression was assessed in QRT-PCR, and each condition was performed in triplicate. Significance was determined by unpaired Student's t-test; ***p<0.001; ****p<0.0001; Graph error bars are the means±SEM.
To dissect which pathways were essential for the differentiation from day 10 to day 16, the process of elimination was used (FIG. 7C). […] It was hypothesized that the cells in culture secrete enough FGF ligands to saturate the receptors, and any exogenous ligands would have minimal effects. To test this hypothesis, a computationally designed protein was used, FGFR2 mini-binder (FGFR-mb), that specifically binds and inhibits the activity of the FGFR2 (Cao et al., 2022). […]
RNA was extracted using Trizol (Life Technologies) according to manufacturer's instructions. RNA samples were treated with Turbo DNase (Thermo Fisher Scientific) and quantified using Nanodrop ND-1000. […]

B1: FGFR2-binder: computationally designed protein that specifically binds and inhibits the activity of the FGFR2; binding sequence SEQ ID NO. 1 (protein)
chain: MGDRRKEMDKVYRTAYKRITSTPDKEKRKEVVKEATEQLRRIAKDEEEKKKAAYMISFLKTLGLEHHHHHH
On to B1, for which the “expression of AMBN on adding FGFR2 mini-binder” value (50 nM FGFR-mb added at day 14, harvested at day 16) is “almost totally abolished”.

B2: BMP4: bone morphogenic protein-4 (protein, UniProt P12644 293-408, looked up)
Bone morphogenetic protein 4: SPKHHSQRARKKNKNCRRHSLYVDFSDVGWNDWIVAPPGYQAFYCHGDCPFPLADHLNSTNHAIVQTLVNSVNSSIPKACCVPTELSAISMLYLDEYDKVVLKNYQEMVVEGCGCR
Turning to B2, for the setting “factor removed independently from differentiation day 10 to day 16, compared to when all factors are present”, the “expression of AMBN when the factor is removed” value is given as “significantly reduced to less than half”.
